Earlier results as cited in publication PMC2688729.

Target: thrombomodulin (Homo sapiens) (UniProt P07204)

Kd: < 1 nM
Substance: thrombin (from UniProt P00734)
